Where no end group is shown, it is not given here.

This assay deals with bovine collagen (Symatese), polymerized gel (bovine). Kind of assay: retention on polymerized bovine collagen gel, antibody loaded at 10 µg/mL, released antibody measured by ELISA.

B1: PlGF-2123-144-αPD-L1 (clone 10F.9G2) (antibody, part only; not given: anti-PD-L1 antibody, part only)
peptide: RRRPKGRGKRRREKQRPTDCHL
modifications: not fully specified (residue 20); also: antibody conjugate, average 6 peptides per antibody
Turning to B1, the % of bound antibody released by plasmin digestion after buffer changes turned out to be 47.1%.
